Test results as given in patent publication US7071214B2, “Compounds and compositions for delivering active agents” (Emisphere Technologies, Inc., priority 1997, dated 2006).
Like-named read-outs stand apart in the source and are kept apart here.

Design: species or system Rats
Details: rat, in vivo

Row | Molecule | Mean peak serum interferon concentration (50 mg/kg) | Mean peak serum interferon concentration (1 mg/kg) | Mean peak serum interferon concentration (po, 1 mg/kg)
1 | O=C(O)CCCc1ccc(NC(=O)COc2ccccc2)cc1 [Compound 9, 4-(4-(phenoxyacetyl)aminophenyl)butyric acid] | 2611±695 |  | 
2 | interferon |  | 79±100 | 1951±1857
